# Experimental data reported in paper PMC11480323.
# Target: Cas7 of the type I-F Cas8-HNH system from Selenomonas sp. isolate RGIG9219 (Selenomonas sp. isolate RGIG9219)
# Assay: cryo-EM structure; Cas8-HNH Cascade-crRNA ribonucleoprotein complex in the target-free state, 3.6 Å; subunits co-expressed in E. coli with crRNA and purified as one complex
substance,measurement,value
Cas7 of the type I-F Cas8-HNH system from Selenomonas sp. isolate RGIG9219 (natural protein),stoichiometry N,6
